Test results taken from paper PMC2632911.
Like-named read-outs stand apart in the source and are kept apart here.

T1: H-NS wild type (UniProt P0ACF8 1-137)
T1 sequence: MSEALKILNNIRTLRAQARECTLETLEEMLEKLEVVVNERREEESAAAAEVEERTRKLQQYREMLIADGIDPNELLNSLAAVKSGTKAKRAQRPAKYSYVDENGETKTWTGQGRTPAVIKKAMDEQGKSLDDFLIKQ


Assays:
Test in all cases: EMSA
[1] = molecular target: T2, H-NS wild type;Tn5 HA transposase (Escherichia coli?;Tn5, UniProt P0ACF8;Q46731 1-137;1-476, |E54K;M56A;L372P)
Tn5 HA transposase [2] = molecular target: T3, Tn5 HA transposase (Tn5, UniProt Q46731 1-476, E54K;M56A;L372P)
H-NS wild type = molecular target: T1, H-NS wild type
[3] = molecular target: H-NS P116S;Tn5 transposase delta369 EK/MA (Escherichia coli?;Tn5, UniProt P0ACF8;Q46731 1-137;1-368, P116S|E54K;M56A)
[4] = molecular target: T2, H-NS wild type;Tn5 HA transposase; remark: listed apart in the source
Tn5 HA transposase [5] = molecular target: T3, Tn5 HA transposase; remark: listed apart in the source
[6] = molecular target: H-NS wild type;Tn5 transposase delta369 EK/MA (Escherichia coli?;Tn5, UniProt P0ACF8;Q46731 1-137;1-368, |E54K;M56A)
[7] = molecular target: Tn5 transposase delta369 EK/MA (Tn5, UniProt Q46731 1-368, E54K;M56A)
[8] = molecular target: T2, H-NS wild type;Tn5 HA transposase; remark: listed apart in the source

Binder | binding result [1] | binding result (Tn5 HA transposase [2]) | binding result (H-NS wild type) | binding result [3] | binding signal [4] [fold increase] | binding result (Tn5 HA transposase [5]) | binding result [6] | binding result [7] | binding signal [8] [fold increase]
20 bp ME (dsDNA) DNA 1: CTGTCTCTTATACACATCTT DNA 2: AAGATGTGTATAAGAGACAG | binds | binds | no binding |  |  |  |  |  | 
53 bp ME (WT) (dsDNA) DNA 1: CCCTGCAGGTCGACTGTCTCTTATACACATCTTGAGTGAGTGAGCATGCATGT DNA 2: ACATGCATGCTCACTCACTCAAGATGTGTATAAGAGACAGTCGACCTGCAGGG |  |  |  | no binding | < 2 | binds | binds | binds | 11
